{"source": "patent US20080226630A1", "target": "RSV protein F (recombinant or purified F protein) (human respiratory syncytial virus, strain not stated)", "assay": "SPR Biacore 3000, Fab over amine-coupled recombinant protein F", "data": [{"substance": "Fab fragment derived from commercially available Palivizumab (Synagis)", "values": [{"measurement": "Kd", "value": 3.78, "unit": "nM"}, {"measurement": "koff", "value": 0.000757, "unit": "s⁻¹"}, {"measurement": "kon", "value": 200000, "unit": "M⁻¹ s⁻¹"}, {"measurement": "t1/2", "value": 15, "unit": "min"}]}]}
